Source: US7939292B2, “Modified heparinase III and methods of sequencing therewith” (Massachusetts Institute of Technology, priority 2000, dated 2011)

Experiments:
FGFR1 = FGFR1 phosphorylation in B16BL6 tumor samples; design: species or system mice; settings: mouse, in vivo
Description: c. Effect of treatment of tumor with hep I and hep III in FGFR1 activation compared to PBS. Level of phosphorylated FGFR1 in tumor samples was assessed by standard immunoprecipitation followed by Westernblotting with phosphotyrosine specific antibody. Primary B16BL6 tumors were grown and treated as described earlier and at day 15 the tumor was harvested in cold modified RIPA buffer containing enzyme inhibitors and homogenized. The homogenates were past through 25-gauge needle 3 times and centrifuged. The supernatant was adjusted for protein concentration using the Bio-Rad protein assay kit (Bio-Rad). FGFR1 was immunoprecipitated with poly-clonal anti-FGFR1 antibody (Santa Cruz Biotechnology, Inc., CA). Samples were then pelleted, washed, and eluted from the beads by addition of sample buffer and boiled for 3 minutes (Kapila, Y. L., Wang, S. & Johnson, P. W. Mutations in the heparin binding domain of fibronectin in cooperation with the V region induce decreases in pp125(FAK) levels plus proteoglycan-mediated apoptosis via caspases. J Biol Chem 274, 30906-13 (1999).). After electrophoresis, the gel was transferred to nitrocellulose membrane by standard methods. The immunoblot was probed with phosphotyrosine specific antibody conjugated to HRP (RC20; Transduction Laboratories, Lexington, Ky.) and developed with SuperSignal West Pico Chemiluminescent substrate. […]

B16BL6 melanoma [1] = assay: Histological examination of tumor samples (apoptosis, TdT labeling); type: in vivo, mice
Description: Immunohistochemistry was done as described (Parangi et al., 1996; O'Reilly et al., 1994) with minor modifications. Briefly, tumor tissues were fixed in either 4% (vol/vol) formaldehyde overnight for von Willebrand factor (vWF) staining and terminal deoxynucleotide transferase (TdT) labeling or in Glyo-Fixx solution overnight for Ki-67 nuclear antigen staining. Tissues were embedded in paraffin according to standard histological procedures. For vWF staining, sections (5 μm thick) were incubated with 0.2 N HCl for 10 min. autoclaved in a Coplin jar immersed with Target retrieval Solution (Dako) for 15 min. and permeabilized with 2 μg/ml proteinase K at 37° C. for 15 min. Sections were incubated with rabbit anti-human vWF antibody coupled with horseradish peroxidase (HRP) (Dako). Positive staining was detected by substrate reaction with diaminobenzidine. Sections were counterstained with Gill's hematoxylin and mounted in Permount (Fisher). […] Capillary density was determined by counting the number of vWF-positive capillaries per high power field (HPF, ×200). The proliferative and apoptotic indices of tumor cells within areas of viable tumor were estimated from the percentage of cells scored under a light microscope at 400-fold magnification. A minimum of 2000 cells were counted in each animal. # indicates standard error.

B16BL6 melanoma [2] = assay: Primary tumor growth of B16BL6 melanoma in mice treated with heparinases; type: in vivo
Description: Heparinases I and III, which have very distinct substrate specificities for cleaving HLGAGs, were employed as tools to investigate the role of HLGAGs in tumor growth and metastasis. While heparinase I cleaves at the highly sulfated regions of HLGAGs, heparinase III only cleaves at the under-sulfated regions of the polysaccharide chain, thereby rendering these enzymes powerful tools to investigate in vivo and in vitro roles of HLGAGs, in development, morphogenesis, angiogenesis etc. To examine the roles of HLGAGs in tumor growth and metastasis, we used B16BL6 melanoma as a model system and treated tumor-bearing mice with either heparinases I or III to investigate both primary tumor growth as well as tumor metastasis. Consistent with the current paradigm, heparinase I accelerated tumor growth (FIG. 8). At a dosage of 0.5 mg/kg/day of heparinase I, tumor growth was increased by about 39%. […] Inhibition of primary tumor growth by heparinase III was first observed at 2 mg/kg per day. Tumor growth was inhibited by 73% at 12 mg/kg per day, the maximum dosage tested in the study (FIG. 8).
Mice, 15 days after tumor implantation with B16BL6 melanoma, were examined. 4×10^5 log growth phase B16BL6 melanoma cells in 0.1 ml PBS were injected to the flank of C57BL/6 mice on day 1. Daily injection of 0.1 ml of PBS, heat inactivated hep III or active heparinase III (2 mg/ml, recombinantly expressed, purified, buffer exchanged with PBS, and concentrated) started at the day 4 and continued throughout the experiment. At day 7, osmotic pumps (100 μl capacity delivering at 0.5 μl per hour) containing PBS or 3 mg/ml hep III were implanted subcutaneously at a place remote from the tumor site. Mice were sacrificed at day 15.
FIG. 8 depicts the tumor volume of the tumors isolated from the mice described above. Tumor volume was measured daily after day 7 with a caliper and calculated with the formula [volume=0.52×(width)^2×(length)].

B1: heparinase III: HLGAG degrading enzyme from Flavobacterium heparinum (EC 4.2.2.8), SEQ ID NO:2; cleaves heparan sulfate (protein, listed as Pedobacter heparinus)
chain: MTTKIFKRIIVFAVIALSSGNILAQSSSITRKDFDHINLEYSGLEKVNKAVAAGNYDDAAKALLAYYREKSKAREPDFSNAEKPADIRQPIDKVTREMADKALVHQFQPHKGYGYFDYGKDINWQMWPVKDNEVRWQLHRVKWWQAMALVYHATGDEKYAREWVYQYSDWARKNPLGLSQDNDKFVWRPLEVSDRVQSLPPTFSLFVNSPAFTPAFLMEFLNSYHQQADYLSTHYAEQGNHRLFEAQRNLFAGVSFPEFKDSPRWRQTGISVLNTEIKKQVYADGMQFELSPIYHVAAIDIFLKAYGSAKRVNLEKEFPQSYVQTVENMIMALISISLPDYNTPMFGDSWITDKNFRMAQFASWARVFPANQAIKYFATDGKQGKAPNFLSKALSNAGFYTFRSGWDKNATVMVLKASPPGEFHAQPDNGTFELFIKGRNFTPDAGVFVYSGDEAIMKLRNWYRQTRIHSTLTLDNQNMVITKARQNKWETGNNLDVLTYTNPSYPNLDHQRSVLFINKKYFLVIDRAIGEATGNLGVHWQLKEDSNPVFDKTKNRVYTTYRDGNNLMIQSLNADRTSLNEEEGKVSYVYNKELKRPAFVFEKPKKNAGTQNFVSIVYPYDGQKAPEISIRENKGNDFEKGKLNLTLTINGKQQLVLVP
FGFR1
  phosphorylation of FGFR1 in primary tumor: inhibited phosphorylation of FGFR1
B16BL6 melanoma [1]
  apoptosis in tumor samples, enzyme treated tumors: increased apoptosis
B16BL6 melanoma [2]; 12 mg/kg per day, maximum dosage tested
  inhibition of tumor growth: 73%
B16BL6 melanoma [2]; mouse, in vivo
  dosage at which inhibition of primary tumor growth was first observed: 2 mg/kg per day
B16BL6 melanoma [2]; nude mice and C57BL/6 mice, subcutaneous injections
  primary tumor growth: significant inhibition in primary tumor growth
